# Reference: patent publication US20250129168A1
# Assays:
# [1] = molecular target: Fc gamma receptor CD16a F variant (human) (UniProt P08637); experiment: ELISA, plate coated with recombinant huCD16a (F variant), detection with peroxidase anti-human IgG F(ab')2, OD 450 nm - 630 nm
# [2] = molecular target: human Dectin-1 isoform A (human) (UniProt Q9BXN2); experiment: flow cytometry on HEK-Blue hDectin-1a cells
# [3] = molecular target: human Dectin-1 isoform B (human) (UniProt Q9BXN2); experiment: flow cytometry on HEK-Blue hDectin-1b cells
# [4] = molecular target: cynomolgus monkey Dectin-1 (cynomolgus monkey); experiment: flow cytometry, cynomolgus monkey monocytes
# [5] = molecular target: cynomolgus monkey Dectin-1 (cynomolgus monkey); experiment: flow cytometry on cynomolgus monkey monocytes
# [6] = molecular target: human Dectin-1 (isoform not given) (human) (UniProt Q9BXN2); experiment: flow cytometry on human monocytes
# [7] = molecular target: human Dectin-1 isoform A (human) (UniProt Q9BXN2); experiment: flow cytometry on HEK293F hDectin-1a FL cells
# Sequence of human Dectin-1 isoform A (human) (Q9BXN2 whole entry, canonical isoform): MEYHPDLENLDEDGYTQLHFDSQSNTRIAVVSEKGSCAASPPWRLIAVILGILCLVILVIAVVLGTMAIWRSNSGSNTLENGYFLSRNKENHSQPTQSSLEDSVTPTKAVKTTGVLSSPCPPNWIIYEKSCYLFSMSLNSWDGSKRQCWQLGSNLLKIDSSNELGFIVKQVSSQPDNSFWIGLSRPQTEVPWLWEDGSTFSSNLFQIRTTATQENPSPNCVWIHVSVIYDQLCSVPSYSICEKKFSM
# Sequence of cynomolgus monkey Dectin-1 (cynomolgus monkey) (chain, as listed by the source): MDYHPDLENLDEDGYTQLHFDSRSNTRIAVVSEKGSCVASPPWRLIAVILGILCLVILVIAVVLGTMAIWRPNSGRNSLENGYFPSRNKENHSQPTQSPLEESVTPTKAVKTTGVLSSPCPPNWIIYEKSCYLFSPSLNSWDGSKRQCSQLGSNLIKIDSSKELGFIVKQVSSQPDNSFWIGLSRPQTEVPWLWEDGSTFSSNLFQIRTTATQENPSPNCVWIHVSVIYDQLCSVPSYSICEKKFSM
# Sequence of human Dectin-1 isoform B (human) (Q9BXN2 other isoform, or with tags, fused parts or gaps): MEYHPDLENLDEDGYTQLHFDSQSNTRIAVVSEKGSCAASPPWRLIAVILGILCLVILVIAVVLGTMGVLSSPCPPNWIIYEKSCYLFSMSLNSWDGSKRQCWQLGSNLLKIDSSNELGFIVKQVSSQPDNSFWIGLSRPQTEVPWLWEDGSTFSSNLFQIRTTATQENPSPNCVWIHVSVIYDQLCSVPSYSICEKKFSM
# Sequence of human Dectin-1 (isoform not given) (human) (Q9BXN2 whole entry, canonical isoform): as the sequence (Q9BXN2 whole entry, canonical isoform) above
# Sequence of Fc gamma receptor CD16a F variant (human) (P08637 17-208 limits assumed, change not shown): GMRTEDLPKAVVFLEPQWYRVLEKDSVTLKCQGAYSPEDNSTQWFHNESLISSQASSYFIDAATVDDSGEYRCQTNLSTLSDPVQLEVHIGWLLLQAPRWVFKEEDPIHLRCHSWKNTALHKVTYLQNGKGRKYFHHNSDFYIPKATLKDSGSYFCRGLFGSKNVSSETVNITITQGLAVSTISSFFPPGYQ
Substance,EC50 (read off the curve) [1] [µg/mL],EC50 [2] [nM],EC50 [3] [nM],EC50 [4] [nM],EC50 [5] [nM],EC50 [6] [nM],EC50 [7] [nM]
Control (antibody),0.07,,,,,,
commercial anti-Dectin-1 antibody 259931,,0.8,0.9,16,16.5,0.3,1.2
commercial anti-Dectin-1 antibody GE2,,1.9,12,,,1.4,2.4
